Results taken from the DeepSol protein solubility set.

Test: soluble on expression in E. coli; label from the status in PepcDB or PDB records

| Sequence | soluble on expression in E. coli |
| --- | --- |
| MSLRDKKGPVNKRVDFLSNKLNKYSIRKFTVGTASILIGSLMYLGTQQEAEAAENNIENPTTLKDNVQSKEVKIEEVTNKDTAPQGVEAKSEVTSNKDTIEHEASVKAEDISKKEDTPKEVANVAEVQPKSSVTHNAEAPKVRKARSVDEGSFDITRDSKNVVESTPITIQGKEHFEGYGSVDIQKNPTDLGVSEVTRFNVGNESNGLIGALQLKNKIDFSKDFNFKVRVANNHQSNTTGADGWGFLFSKGNAEEYLTNGGILGDKGLVNSGGFKIDTGYIYTSSMDKTEKQAGQGYRGYGAFVKNDSSGNSQMVGENIDKSKTNFLNYADNSTNTSDGKFHGQRLNDVILTYVASTGKMRAEYAGKTWETSITDLGLSKNQAYNFLITSSQRWGLNQGINANGWMRTDLKGSEFTFTPEAPKTITELEKKLKRFHSRKNVNLIRIEGHHHHHH | not soluble |
| AIAVFWGKPLASPRESPRAPGENGKRALHFCAVDEDFVRLFYSFFKSLVGKDVVVELKNDLSICGTLHSVDQYLNIKLTDISVTDPEKYPHMLSVKNCFIRGSVVRYVQLPADEVDTQLLQDAARKEALQQKQ | soluble |
| MVHFIFIALRSMRFMRRLVRNLQYLLLPITSSLLFI | soluble |
| IQILSKSKLEKCEKTSDSGNLNCSTKIVLNLAVPSGSSGGEASIVAEIVEVEDNSSSNMQTVRIPPVITVNKSAAYALYDLTYIRDVPYKPQEYHVTTRKCEPDAGPDIVQICERLRDEKGNVLEQTQPICCPCGPQRRMPSSCGDIFDKMIKGKANTAHCLRFPGDWFHVFGIGQRSLGFSVRVELKTGTRVSEVIIGPENRTATANDNFLKVNLIGDFGGYTSIPSFEDFYLVIPREAAEAGQPGSLGANYSMWMLLERVRFTLDGLECNKIGVGYEAFNTQPNFCSSPYWSCLHNQLWNFRESDINRIDRHQLPLYGLEGRFERINQHPNAGPHSFSIGVTETLNTNLMIELRADDIEYVFQRSPGKIINIAIPTFEALTQFGVAAVIIKNTGEVEASYSLTFDCSKGVAFVEEQFFIIKPKAVTTRSFKLYPTKDQAAKYICTAILKDSQFSEVDRAECQFSTTATVLDNGTQVTNPFQIPETQPKGFFDSIRILWTKIINGLVDFITGDTCRNKCSSFFDFSCHIQYVCLS | not soluble |
| MSLTPLTGQDTPALDECVVDAVDVHAFEVPTDGPEGREQDGTLEWDATTLVLVRVHAGGRTGLGYTYGDVSVASFAHSVLGPVVKGRPVSSPPALWELMGARMRNAGRPGVGAMALSAVDVALWDLKARLLGLPLVHLLPAHHDRVPVYGSGGFTNYPLDRLTDQLAGWVRQGIGRVKLKTSRDPEADPRRLTAVRRAVGDGPEVFTDANGALGRKAALYWAHRFHDEWDVRWFEEPVASADLEGLRMLRERGPARLEITAGEYAFTAQDFANLTEGPAVDCLQADVTRCGGVTGVLEVAGLSAARHLDLSAHCAPAVSAHAFCAVRRLRHLEYFHDHVRVERLLFDGVPSPEGGALRPDTSRPGLGLEVRWADAEPYRVRGVRPPREGHHHHHH | soluble |
| MGSDKIHHHHHHMIDTFERTGPLMEASSYPAWAQQLINDCSPAKARVVEHELYQQMRDAKLSPQIMRQYLIGGWPVVEQFAVYMAKNLTKTRFGRHPGEDMARRWLMRNIRVELNHADYWVNWCAAHDVTLEDLHDQRVAPELHALSHWCWQTSSSDSLAVAMAATNYAIEGATGEWSAVVCSTGVYAEAFAEETRKKSMKWLKMHAQYDDAHPWEALEIICTLVGNKPSLQLQAELRQAVTKSYDYMYLFLERCIQLDKVKSPRGRVAALEM | not soluble |
| GPGSMTGPFRYVITDMDGTLLSPDHFVSDYTRDTLKTLVHEHGVIPILATGRSYADVRIIADNLKAYIWCDGTAAPGARAPASPSRAPVIYLITSNGATVHNGVTHEVVFRTSIDPALAEKLLQLLPSDEEVVNTNAYQNDDWVCRIDWPKMMAVSKESGIRFIHVPHPLPSSSCALGSAAASPDAAARGIAIGDYTGISKIFFITDDAARLAALADEVHAIAKAHGGAPVSLTFSMSDCMDIMANGVTKGEALKRLFGAILPSRDGVDVVADALAHAIAFGDGLNDAEMLASVGKGCVMGNANPKLIAQHPELEVILTNAEDGVAKKLRSAFHLPL | soluble |
| MGSDKIHHHHHHMRTNVRLLAYRLLRKYEKEKFISREDVDSVLSFLDDRDRRFFKELVWGVVRKEELLDWYINQLLKKKDIPPAVRVALRMGAYQLLFMNSVPDYAAVSETVKLVKNENFKKLVNAVLRRLRTVPEPKELHLVYSHPEWIVNYWRSFLPEEAVLRIMKWNQEPLPVMLRVNSLAATKEEVIKILAEEGTEAVPGKHAPFSLIVRKLGVPMNDSRVINDGLASVQGESSQLVPFFMELRPGLRVLDTCAAPGGKTTAIAELMKDQGKILAVDISREKIQLVEKHAKRLKLSSIETKIADAERLTEYVQDTFDRVLVDAPCTSLGTARNHPEVLRRVNKEDFEKFSEIQLRMVQQAWQLLEKGGILLYSTCTVTKEENTEVVKRFVYEQKDVEVIDIRDKMKEFEVEGIWDGYGFLMLPDETITPFYISVLRKMG | not soluble |
| MLPSRKRLVLEQLGKTLSRFAGLQAVSPPARGWIRAIREALGMSGVQFAARLGVTPPRVTALERDELSGAVTMKTMRQAAEALDCVFLYALVPRTSLEETIRRQAEAVARERLLRVSHTMMLESQQLSEEEMKQALDAAVEELVRTMPKDLWSKAP | not soluble |
| QTLTEEEVLKKLDKEQMRASFEDMRRIMPDLGFEAKGYALSFEQLAQLKIPVIVYLKYRKDDHFSVLRGIDGNTVLLADPSLGHVSMSRAQFLDAWQTREGNLAGKILAVIPKKAETISNKLFFTQHPKRQTEFTVGQIRQARAE | not soluble |
| MGRIKQMTPNVMRLLKACFVEQIPDEVCDEFHLKKDTEHMILITKDGGMPISKIKPLSDSQVLSVLSQILLSLYIGKRELQFSHNDLNPGNLLISETKKKSISYKKDGKSIKIKSHGRFLTLIDLQKSTFDEKEDKGLDCWKLNSRVRDQFLPLVKEDTKKILAKVAEEIEKTTILDWKLPGMLPIQ | not soluble |
| MSLSAMARKVKITDVKCMIVRGTWDWNLIKIETDSGLYGIGEAYWGWGVKDLVVNKMKGIIVGEDPLNVDKLYTKMLMQSAGAGAIGGVTMTAASGIEIALWDLCGRILDTPVCNLLGGRFRDRIRFYRTTQAVKNVEDTKEWRALAESARAEKWGWTAFKFQGDGIPPRADPEFKEPGHDPYARNLTHKDHRRIVTAMETVRETLGPDADFAVECHWRYDTQDVISLGKELEPVKPMWLEDPVPPDNIEAMQRVTHAINVPVCTGENLYGRQGFRKLIEMQACSGVHIDIPKSGGLMESKKISDLADLYYIWTACHNPASPVGTIASCHASAAMREFRIHELANWVDWWPDLVIREGPFWKDGYFTIQDKPGYGVELNPDVAKAHLAPGETWWGEGHHHHHH | not soluble |
| MGSDKIHHHHHHMSDSAKQPELWLMGLGCEEERSTAVLDYLRHAGYSVVCRGRDDFGDTKPLGVVLDVSPFSHDGWGILLDIKNNPATRDVPILPVYLSQEGKIGGVFPAAGFFTLPIDTDYMMKKLTVLGLTDEADTWDLQVMVISKKGEESVAKAITSLGFEVVNAYTGKEAVALATTGRAYMIFCSVTLPDMHSFELLERFRLYPQVRNVPFFVLVKDAMKEGERLALSRQMDHLVRKKELSRDEFLAYLRRRG | not soluble |
| MHGSKLPLTVWFWAAYLMATHSNGISARQMGRHLGLGSYKSAWLLCAKLRGAMVNLARALLSGLVEIDETQISYRTKDNPVAGGGGRSPEGKMQVVVAVEVIDNAPGRLRLGVIDDASSASLHPFIKASVASGATLKTDGWSAYPGAPGYKHEPHVVGKMAAHIVLPWVHRVISNLKTWALGVYHGLRRQHLQSYLNEFVFRFNCRRTPHAAFRTLLGIGLAIQPVTYNMLIAPEAQGLEHHHHHH | not soluble |
| MGSDKIHHHHHHMRKDKNGTQEPKAKYRVRNWAAYNAGLINRGNITMWIGDDALANMPDTEPTRGRSRLYSDALIQALLGLKTVFHLPLRALQGFAQSLRDLAFAELPVPNYTTVCRRAQALQVKLPVIHSDEPLHLVVDSTGAKVCGEGEWKVRQHGYSKRRTWRKVHLALDANTGQLRAALMTHQDVADGEVLPELLEQISADESIDTIGGDGAYDTQACYASITARGALPSIPPREGAVHWPTTTPGASRRNAALDAIAQGSRREWKQQSGYHRRSLAENAMYRLKTLTGPCLWARRTDTQATEVAVRVGVLNRMAELSRPQSVRIARDHEQRHHFVLTPDLCNNVHSSAERRQGRVSCAMHATI | not soluble |
| MDAVDRGVYFDEDFHVRILDVDKYNASKSLQDNTNVFINNIQNMQGLVDKYVSAIDQQVERLEAEKLKAIGLRNRVAALSEERKRKQKEQERMLAEKQEELERLQMEEQSLIKVKGEQELMIQKLSDSSSGAAYV | not soluble |
| MSVSLLRGRTVRRVLSVLVVAGLLGAGATGCSNDAGAKTENTVDASPTPTNTPTDGEGDSEGAEEPVEDTPAEPEQRPVPEEPEAMKTGDKAGAIAAATFFVEVIEYDATQPDSRFFSKYAYEECGWCNEYKKTHEQQANSNFSLINTNINLEDIKTASFAGEGSVLWSVPINANVSSHYKSKKDDEVVETEHTLTGNMLVGYRNGQWLLVEGDLLVK | not soluble |
| MTLDEEYLDITFLTENGFVRKRCPKCGKHFWTADPEREICGDPPCESYSFIGNPVFKKPFELDEMREYYLNFFERRGHGRIERYPVVARWRTDIYLTIASIADFQPFVTSGVAPPPANPLTISQPCIRLDDLDSVGRTGRHLTLFEMMAHHAFNYPGKEIYWKNETVAYCTELLNELGVKKEDIVYKEEPWAGGGNAGPCLEAIVGGLEVATLVFMNLEEHPEGDIEIKGARYRKMDNYIVDTGYGLERFVWASKGTPTVYDAIFPEVVDTIIDNSNVSFNREDERVRRIVAESSKLAGIMGELRGERLNQLRKSVADTVGVSVEELEGIVVPLEKVYSLADHTRCILFMLGDGLVPSNAGAGYLARLMIRRSLRLAEELELGLDLYDLVEMHKKILGFEFDVPLSTVQEILELEKERYRTTVSKGTRLVERLVERKKKLEKDDLIELYDSHGIPVELAVGIAAEKGAEVEMPKDIYAELAKRHSKAEKVQEKKITLQNEYPATEKLYYDDPTLLEFEAEVIGVEGDFVILNRSAFYPESGGQDNDVGYLIANGGKFEVVDVLEADGVVLHVVKGAKPEVGTKVKGVIDSDVRWRHMRHHSATHVLLYSLQKVLGNHVWQAGARKEFSKARLDVTHFRRPSEEEIKEIEMLANREILANKPIKWEWMDRIEAERKFGFRLYQGGVPPGRKIRVVQVGDDVQACGGTHCRSTGEIGMLKILKVESIQDGVIRFEFAAGEA | soluble |
| MAHHHHHHMGFWVFDRVADGFLFRGRRQLSRLHQRNAMLDANGMPLTGDLAAEATTWRSQHAFSGRCGLSVKRSPEPHDNRDEARRNGGGDVPHPEKMLPSYECIISRSPNDYRAWAVDFHLQSTSEDPHVLLSVAPYYAPLQSNFVEGGRSWHPPTTEEQEMYDKRMLETPLIWEEPMTLSLDCTNSGMFLWSEEWKIFGEKIADNCFSRRSQSRGGDDSVDQMGGVSGVREGPYEAFVRLSWRMMSAGENDMYGGEKRSLSDASVRNIIVGPCQGEMTVFLRTSSSDQEEGDVSVPRQINGTGNVGAHGGESVSSGVQVWKRAGGRAVLGDDIPNEIYFTPYVTLMDAGDEAILL | soluble |
